Reference: patent publication US20160010082A1

Biological target: YPet-Mona
Test: flow cytometry of E. coli displaying the construct, 50 nM YPet-Mona; 30 minutes of expression; reference CPX display

Chain of YPet-Mona (O89100 263-322): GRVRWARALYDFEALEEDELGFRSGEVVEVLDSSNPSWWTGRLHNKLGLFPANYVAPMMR

- fold improved display level compared to CPX: 9 fold
B1: eCPX displaying the P2 peptide at the C-terminus (protein)
chain: GQSGQGGQSGQSGDYNKNQYYGITAGPAYRINDWASIYGVVGVGYGKFQTTEYPTYKHDTSDYGFSYGAGLQFNPMENVALDFSYEQSRIRSVDVGTWILSVGYRFGSKSRRATSTVTGGYAQSDAQGQMNKMGGFNLKYRYEEDNSPLGVIGSFTYTEKSRTASGGQSGQPAPSIDRSTKPPL
